Assay results taken from patent publication US20200024330A1.
Substitutions are numbered along the chain they refer to.

Key:
[1] = molecular target: Env of the clade A HIV-1 pseudoviruses of the cross-clade 162-pseudovirus panel (n = 26); experiment: cell-based or functional assay
[2] = molecular target: Env of the clade C HIV-1 pseudoviruses of the cross-clade 162-pseudovirus panel (n = 27); experiment: cell-based or functional assay
[3] = molecular target: Env of the clade D HIV-1 pseudoviruses of the cross-clade 162-pseudovirus panel (n = 25); experiment: cell-based or functional assay
[4] = molecular target: Env of the clade F HIV-1 pseudoviruses of the cross-clade 162-pseudovirus panel (n = 15); experiment: cell-based or functional assay
[5] = molecular target: Env of the clade G HIV-1 pseudoviruses of the cross-clade 162-pseudovirus panel (n = 15); experiment: cell-based or functional assay
[6] = molecular target: HIV-1 Env of isolate 92TH021 (HIV-1); experiment: cell-based or functional assay
[7] = molecular target: HIV-1 Env of isolate JR-CSF (HIV-1) (UniProt P20871); experiment: cell-based or functional assay
[8] = molecular target: HIV-1 Env of isolate MGRM-C-026 (HIV-1); experiment: cell-based or functional assay
[9] = molecular target: HIV-1 JR-CSF Env D325A (HIV-1 isolate JR-CSF) (UniProt P20871); experiment: cell-based or functional assay
[10] = molecular target: HIV-1 JR-CSF Env E321aA (HIV-1 isolate JR-CSF) (UniProt P20871); experiment: cell-based or functional assay
[11] = molecular target: HIV-1 JR-CSF Env F210A (HIV-1 JR-CSF) (UniProt P20871); experiment: cell-based or functional assay
[12] = molecular target: HIV-1 JR-CSF Env F317A (HIV-1 isolate JR-CSF) (UniProt P20871); experiment: cell-based or functional assay
[13] = molecular target: HIV-1 JR-CSF Env H330A (HIV-1 isolate JR-CSF) (UniProt P20871); experiment: cell-based or functional assay
[14] = molecular target: HIV-1 JR-CSF Env I307A (HIV-1 JR-CSF) (UniProt P20871); experiment: cell-based or functional assay
[15] = molecular target: HIV-1 JR-CSF Env I309A (HIV-1 JR-CSF) (UniProt P20871); experiment: cell-based or functional assay
[16] = molecular target: HIV-1 JR-CSF Env I420A (HIV-1 (isolate JR-CSF)) (UniProt P20871); experiment: cell-based or functional assay
[17] = molecular target: HIV-1 JR-CSF Env K343A (HIV-1 isolate JR-CSF) (UniProt P20871); experiment: cell-based or functional assay
[18] = molecular target: HIV-1 JR-CSF Env N262A (HIV-1 JR-CSF) (UniProt P20871); experiment: cell-based or functional assay
[19] = molecular target: HIV-1 JR-CSF Env N276A (HIV-1 JR-CSF) (UniProt P20871); experiment: cell-based or functional assay
[20] = molecular target: HIV-1 JR-CSF Env N295A (HIV-1 JR-CSF) (UniProt P20871); experiment: cell-based or functional assay
[21] = molecular target: HIV-1 JR-CSF Env N301A (HIV-1 JR-CSF) (UniProt P20871); experiment: cell-based or functional assay
[22] = molecular target: HIV-1 JR-CSF Env N339A (HIV-1 isolate JR-CSF) (UniProt P20871); experiment: cell-based or functional assay
[23] = molecular target: HIV-1 JR-CSF Env N386A (HIV-1 isolate JR-CSF) (UniProt P20871); experiment: cell-based or functional assay
[24] = molecular target: HIV-1 JR-CSF Env N411A (HIV-1 (isolate JR-CSF)) (UniProt P20871); experiment: cell-based or functional assay
[25] = molecular target: HIV-1 JR-CSF Env P313A (HIV-1 JR-CSF) (UniProt P20871); experiment: cell-based or functional assay
[26] = molecular target: HIV-1 JR-CSF Env R315A (HIV-1 isolate JR-CSF) (UniProt P20871); experiment: cell-based or functional assay
[27] = molecular target: HIV-1 JR-CSF Env R350A (HIV-1 isolate JR-CSF) (UniProt P20871); experiment: cell-based or functional assay
[28] = molecular target: HIV-1 JR-CSF Env R419A (HIV-1 (isolate JR-CSF)) (UniProt P20871); experiment: cell-based or functional assay
[29] = molecular target: HIV-1 JR-CSF Env S199A (HIV-1 JR-CSF) (UniProt P20871); experiment: cell-based or functional assay
[30] = molecular target: HIV-1 JR-CSF Env S334A (HIV-1 isolate JR-CSF) (UniProt P20871); experiment: cell-based or functional assay
[31] = molecular target: HIV-1 JR-CSF Env S393A (HIV-1 (isolate JR-CSF)) (UniProt P20871); experiment: cell-based or functional assay
[32] = molecular target: HIV-1 JR-CSF Env T297A (HIV-1 JR-CSF) (UniProt P20871); experiment: cell-based or functional assay
[33] = molecular target: HIV-1 JR-CSF Env T303A (HIV-1 JR-CSF) (UniProt P20871); experiment: cell-based or functional assay
[34] = molecular target: HIV-1 JR-CSF Env T320A (HIV-1 isolate JR-CSF) (UniProt P20871); experiment: cell-based or functional assay
[35] = molecular target: HIV-1 JR-CSF Env T341A (HIV-1 isolate JR-CSF) (UniProt P20871); experiment: cell-based or functional assay
[36] = molecular target: HIV-1 JR-CSF Env T388A (HIV-1 (isolate JR-CSF)) (UniProt P20871); experiment: cell-based or functional assay
[37] = molecular target: HIV-1 JR-CSF Env T394A (HIV-1 (isolate JR-CSF)) (UniProt P20871); experiment: cell-based or functional assay
[38] = molecular target: JR-FL gp120 ΔV1/ΔV2 (HIV-1 (isolate JR-FL)); experiment: ELISA on coated gp120; EC50 by nonlinear regression
[39] = molecular target: WT JR-FL gp120 (HIV-1 (isolate JR-FL)); experiment: as above

B1: PGT-127 (antibody, V domains shown)
VH: QPQLQESGPGLVEASETLSLTCTVSGDSTGRCNYFWGWVRQPPGKGLEWIGSLSHCRSYYNTDWTYHNPSLKSRLTISLDTPKNQVFLRLTSVTAADTATYYCARFGGEVLVYRDWPKPAWVDLWGRGTLVVTVS
VL: QSALTQPPSASGSPGQSITISCTGTSNNFVSWYQQYPGKAPKLVIYEVNKRPSGVPDRFSGSKSGSTASLTVSGLQADDEGVYYCSSLVGNWDVIFGGGTKLTVL
- Median IC50 against viruses neutralized with an IC50 <50 µg/ml [1]: 0.02 µg/mL
- Median IC50 against viruses neutralized with an IC50 <50 µg/ml [2]: 0.55 µg/mL
- Median IC50 against viruses neutralized with an IC50 <50 µg/ml [3]: 0.49 µg/mL
- Median IC50 against viruses neutralized with an IC50 <50 µg/ml [4]: 0.65 µg/mL
- Median IC50 against viruses neutralized with an IC50 <50 µg/ml [5]: 0.22 µg/mL
- IC50 (µg/mL), pseudovirus neutralization [6]: > 50 µg/mL
- Polyclonal Transfectant Neutralization Index (well 5145 B14) [6]: 0.94
- Primary Neutralization Index (B cell culture well 5145 B14) [6]: 1
- Polyclonal Transfectant Neutralization Index (well 5145 B14) [7]: 1.61
- Primary Neutralization Index (B cell culture well 5145 B14) [7]: 31.1
- Polyclonal Transfectant Neutralization Index (well 5145 B14) [8]: 2.62
- Primary Neutralization Index (B cell culture well 5145 B14) [8]: 86.9
- Fold IC50 increase relative to wild-type [9]: 0.93 fold
- Fold IC50 increase relative to wild-type [10]: 1.9 fold
- Fold IC50 increase relative to wild-type [11]: 0.8 fold
- Fold IC50 increase relative to wild-type [12]: 0.2 fold
- Fold IC50 increase relative to wild-type [13]: 0.5 fold
- Fold IC50 increase relative to wild-type [14]: 10.2 fold
- Fold IC50 increase relative to wild-type [15]: 6 fold
- Fold IC50 increase relative to wild-type [16]: 1.8 fold
- Fold IC50 increase relative to wild-type [17]: 1 fold
- Fold IC50 increase relative to wild-type [18]: 1.4 fold
- Fold IC50 increase relative to wild-type [19]: 1.6 fold
- Fold IC50 increase relative to wild-type [20]: 2.3 fold
- Fold IC50 increase relative to wild-type [21]: > 250 fold
- Fold IC50 increase relative to wild-type [22]: 1.1 fold
- Fold IC50 increase relative to wild-type [23]: 0.6 fold
- Fold IC50 increase relative to wild-type [24]: 0.8 fold
- Fold IC50 increase relative to wild-type [25]: 1.3 fold
- Fold IC50 increase relative to wild-type [26]: 0.3 fold
- Fold IC50 increase relative to wild-type [27]: 1.1 fold
- Fold IC50 increase relative to wild-type [28]: 2.5 fold
- Fold IC50 increase relative to wild-type [29]: 3 fold
- Fold IC50 increase relative to wild-type [30]: > 500 fold
- Fold IC50 increase relative to wild-type [31]: 1.2 fold
- Fold IC50 increase relative to wild-type [32]: 1.7 fold
- Fold IC50 increase relative to wild-type [33]: > 500 fold
- Fold IC50 increase relative to wild-type [34]: 1.8 fold
- Fold IC50 increase relative to wild-type [35]: 1.7 fold
- Fold IC50 increase relative to wild-type [36]: 0.5 fold
- Fold IC50 increase relative to wild-type [37]: 1.6 fold
- EC50 [38]: 0.7 µg/mL
- EC50 [39]: 0.1 µg/mL

B2: PGT-128 (antibody, V domains shown)
VH: QPQLQESGPTLVEASETLSLTCAVSGDSTAACNSFWGWVRQPPGKGLEWVGSLSHCASYWNRGWTYHNPSLKSRLTLALDTPKNLVFLKLNSVTAADTATYYCARFGGEVLRYTDWPKPAWVDLWGRGTLVTVSS
VL: B1 VL with Y36H, P37A, E47D, S66N, A77T, G81A, S86G
- Median IC50 against viruses neutralized with an IC50 <50 µg/ml [1]: 0.01 µg/mL
- Median IC50 against viruses neutralized with an IC50 <50 µg/ml [2]: 0.04 µg/mL
- Median IC50 against viruses neutralized with an IC50 <50 µg/ml [3]: 0.02 µg/mL
- Median IC50 against viruses neutralized with an IC50 <50 µg/ml [4]: 0.52 µg/mL
- Median IC50 against viruses neutralized with an IC50 <50 µg/ml [5]: 0.04 µg/mL
- Polyclonal Transfectant Neutralization Index (well 5114 A19) [6]: 10
- Primary Neutralization Index (B cell culture well 5114 A19) [6]: 6.6
- Polyclonal Transfectant Neutralization Index (well 5114 A19) [7]: 136
- Primary Neutralization Index (B cell culture well 5114 A19) [7]: 77.5
- Polyclonal Transfectant Neutralization Index (well 5114 A19) [8]: 32.2
- Primary Neutralization Index (B cell culture well 5114 A19) [8]: 17.1
- Fold IC50 increase relative to wild-type [9]: 0.5 fold
- Fold IC50 increase relative to wild-type [10]: 1.3 fold
- Fold IC50 increase relative to wild-type [11]: 0.8 fold
- Fold IC50 increase relative to wild-type [12]: 0.8 fold
- Fold IC50 increase relative to wild-type [13]: 0.3 fold
- Fold IC50 increase relative to wild-type [14]: 3.7 fold
- Fold IC50 increase relative to wild-type [15]: 2.8 fold
- Fold IC50 increase relative to wild-type [16]: 0.8 fold
- Fold IC50 increase relative to wild-type [17]: 1 fold
- Fold IC50 increase relative to wild-type [18]: 1.6 fold
- Fold IC50 increase relative to wild-type [19]: 0.6 fold
- Fold IC50 increase relative to wild-type [20]: 1 fold
- Fold IC50 increase relative to wild-type [21]: 10.7 fold
- Fold IC50 increase relative to wild-type [22]: 0.8 fold
- Fold IC50 increase relative to wild-type [23]: 1.1 fold
- Fold IC50 increase relative to wild-type [24]: 0.7 fold
- Fold IC50 increase relative to wild-type [25]: 1 fold
- Fold IC50 increase relative to wild-type [26]: 0.4 fold
- Fold IC50 increase relative to wild-type [27]: 1 fold
- Fold IC50 increase relative to wild-type [28]: 0.5 fold
- Fold IC50 increase relative to wild-type [29]: 1 fold
- Fold IC50 increase relative to wild-type [30]: 1.4 fold
- Fold IC50 increase relative to wild-type [31]: 1.4 fold
- Fold IC50 increase relative to wild-type [32]: 1.1 fold
- Fold IC50 increase relative to wild-type [33]: > 500 fold
- Fold IC50 increase relative to wild-type [34]: 1 fold
- Fold IC50 increase relative to wild-type [35]: 1.3 fold
- Fold IC50 increase relative to wild-type [36]: 1 fold
- Fold IC50 increase relative to wild-type [37]: 3 fold
- EC50 [38]: 0.3 µg/mL
- EC50 [39]: 0.1 µg/mL
